These results are taken from paper PMC5053900 (The FEBS journal, 2016).

Changes are numbered by the printed parent chain. In names and notes the source's numbering stands. Read-outs that look alike come from different tables or passages of the source.

As a reminder, the Kd is the equilibrium constant for the complex coming apart. A high value points to lower affinity. By stoichiometry N is commonly meant a count of units in the complex or per binding partner.

First the molecules themselves.
B1: SAMP1, small ubiquitin-like archaeal modifier protein 1, purified (natural protein, Haloferax volcanii, UniProt D4GUF6 1-87, looked up)
chain: MEWKLFADLAEVAGSRTVRVDVDGDATVGDALDALVGAHPALESRVFGDDGELYDHINVLRNGEAAALGEATAAGDELALFPPVSGG
B2: UbaA, E1-like SAMP-activating enzyme of Haloferax volcanii, purified wild type (enzyme, UniProt D4GSF3 1-270, looked up)
chain: MTLSLDATQLDRYSRHIIMDEVGPEGQGRLLSSRVVVVGAGGLGAPAIQYLAAVGVGELVVVDDDVVERSNLQRQVVHCDDDVGTPKAESAAAFVRGLNPDVSVEPVEARVDKSNVHEVVAGSDVVVDASDNFPTRYLLNDVCRFEGIPLVHGAIYKFEGQATTLVPDGPCYRCLFPEAPEPGTVPDCATTGVLGVLPGTVGCIQATEAMKLLLDEGEALDGRLLFYDAMDMTFETVPYRTNPDCPVCGEGGVDSIEDIDYVESCAISLD
B3: UbaA D131N, purified (enzyme, Haloferax volcanii, UniProt D4GSF3 1-270, looked up)
chain: B2 chain with D131N
B4: UbaA C188A, purified (enzyme, Haloferax volcanii, UniProt D4GSF3 1-270, looked up)
chain: B2 chain with C188A
B5: UbaA K87R, purified (enzyme, Haloferax volcanii, UniProt D4GSF3 1-270, looked up)
chain: B2 chain with K87R
B6: SAMP2, small ubiquitin-like archaeal modifier protein 2, purified (natural protein, Haloferax volcanii, UniProt D4GZE7 1-66, looked up)
chain: MNVTVEVVGEETSEVAVDDDGTYADLVRAVDLSPHEVTVLVDGRPVPEDQSVEVDRVKVLRLIKGG

The target in series [1] is B2. Kind of series: ITC. Background: ITC needs no label: the signal is the heat of the interaction.
Series [2] deals with B2. Kind of series: ITC. This is another data set of the same source.
Series [3] addresses B2. The series is described as follows: ITC. The source holds these as a separate data set.
The target of series [4] is B2. The series is described as follows: ITC. This is another data set of the same source.
Series [5] concerns the molecule itself. The series is described as follows: SEC. (In general: SEC sorts molecules by how far they enter the pores of the column.)

For the molecule B1, the Ka came to 250000 M⁻¹ in series [1], 590000 M⁻¹ in series [2], 230000 M⁻¹ in series [3] and 850000 M⁻¹ in series [4]. Besides, the Kd in series [1] was found to be 4.1 µM; in series [2], 1700 nM; in series [3] it was 4.4 µM; in series [4], 1200 nM. Also, the dH in series [1] was 16 kJ/mol; in series [2] it was 36.2 kJ/mol; in series [3], 20.7 kJ/mol; in series [4], 12.2 kJ/mol. For the same molecule, the “stoichiometry N” value in series [1] was determined as 1.02; in series [2] it was 0.95; in series [3], 0.95; in series [4], 0.98.

As for B2, the “stoichiometry N” value in series [5] stood at 2.

Turning to B3, the “stoichiometry N” value in series [5] was found to be 2.

As for B4, in series [5], the “stoichiometry N” value is 2.

Turning to B5, the “stoichiometry N” value in series [5] is 2.

Consider B6, for which, in series [4], the Ka came to 230000 M⁻¹, the Kd came out at 4300 nM, the dH is -69 kJ/mol and the “stoichiometry N” value came out at 0.99.
